Laboratory results reported in US20260055172A1 (CATALYM, published 2026).

T1: recombinant human GDF-15 (human, UniProt Q99988 195-308)
T1 sequence (looked up): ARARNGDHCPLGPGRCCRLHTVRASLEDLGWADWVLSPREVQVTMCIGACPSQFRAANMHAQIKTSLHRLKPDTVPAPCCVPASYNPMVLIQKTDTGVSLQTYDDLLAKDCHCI

T2: cynomolgus GDF-15 (cynomolgus monkey, UniProt G7PWZ3 193-308, limits assumed)
T2 construct: also called NHP GDF-15
T2 sequence (looked up): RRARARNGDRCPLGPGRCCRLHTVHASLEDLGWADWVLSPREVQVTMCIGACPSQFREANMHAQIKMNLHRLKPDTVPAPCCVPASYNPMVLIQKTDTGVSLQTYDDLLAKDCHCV

T3: mouse GDF-15 (mouse, UniProt Q9Z0J7 189-303)
T3 construct: also called murine GDF-15
T3 sequence (looked up): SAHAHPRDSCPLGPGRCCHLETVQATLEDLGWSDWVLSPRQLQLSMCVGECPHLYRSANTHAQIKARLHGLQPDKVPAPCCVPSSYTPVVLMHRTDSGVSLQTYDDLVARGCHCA

T4: rat GDF-15 (rat, UniProt Q9Z0J6 189-303)
T4 sequence (looked up): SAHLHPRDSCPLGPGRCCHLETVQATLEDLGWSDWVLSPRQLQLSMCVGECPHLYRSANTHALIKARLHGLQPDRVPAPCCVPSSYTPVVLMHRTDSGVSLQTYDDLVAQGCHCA

B1: CTL-002 (antibody, human IgG4 S228P, kappa)
heavy: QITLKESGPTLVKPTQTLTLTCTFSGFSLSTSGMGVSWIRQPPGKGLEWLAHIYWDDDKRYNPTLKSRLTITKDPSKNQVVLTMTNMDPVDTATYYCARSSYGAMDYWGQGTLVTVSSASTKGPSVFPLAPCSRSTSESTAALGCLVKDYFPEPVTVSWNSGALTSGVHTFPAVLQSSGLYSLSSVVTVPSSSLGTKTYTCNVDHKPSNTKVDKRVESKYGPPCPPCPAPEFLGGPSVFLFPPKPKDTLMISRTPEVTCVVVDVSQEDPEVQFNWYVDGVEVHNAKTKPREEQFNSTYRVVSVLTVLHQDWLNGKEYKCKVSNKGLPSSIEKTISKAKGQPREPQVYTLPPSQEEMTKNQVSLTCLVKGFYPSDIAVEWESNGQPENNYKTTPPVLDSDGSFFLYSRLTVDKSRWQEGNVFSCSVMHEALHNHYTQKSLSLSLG
light: DIVLTQSPSFLSASVGDRVTITCKASQNVGTNVAWFQQKPGKSPKALIYSASYRYSGVPDRFTGSGSGTEFTLTISSLQPEDFAAYFCQQYNNFPYTFGGGTKLEIKRTVAAPSVFIFPPSDEQLKSGTASVVCLLNNFYPREAKVQWKVDNALQSGNSQESVTEQDSKDSTYSLSSTLTLSKADYEKHKVYACEVTHQGLSSPVTKSFNRGEC
notes: Humanized, hinge-stabilized IgG4 (IgG4 S228P) derived from mouse antibody B1-23; also called CTL-001 IgG4*; CTL-001 IgG4
B2: CTL-001 (antibody, human IgG1, kappa)
heavy: not shown
light: DIVLTQSPSFLSASVGDRVTITCKASQNVGTNVAWFQQKPGKSPKALIYSASYRYSGVPDRFTGSGSGTEFTLTISSLQPEDFAAYFCQQYNNFPYTFGGGTKLEIKRTVAAPSVFIFPPSDEQLKSGTASVVCLLNNFYPREAKVQWKVDNALQSGNSQESVTEQDSKDSTYSLSSTLTLSKADYEKHKVYACEVTHQGLSSPVTKSFNRGEC
notes: Humanized IgG1 with a kappa light chain; also called H1L5; B1-23-H1L5

Columns and labels:
recombinant human GDF-15 [1] = molecular target: T1, recombinant human GDF-15; experiment: cell-based or functional assay
recombinant human GDF-15 [2] = molecular target: T1, recombinant human GDF-15; experiment: SPR (Biacore T3000): CTL-002 on the flow cell (per paragraph 142 an anti-human IgG Fc antibody is immobilized on the CM5 chip), human GDF-15 injected at 247, 370, 556, 833 and 1250 pM, global fit; one representative measurement of three
Procedure: (§1) All experiments were performed in 10 mM HEPES buffer, pH 7.4, 150 mM NaCl, 3.4 mM EDTA and 0.05% Tween. anti-human IgG Fc specific antibody (Jackson, Order #109-005-008, Lot #111148) was covalently immobilized by EDC/NHS chemistry on Biacore CM5 Chips (GE Healthcare, Order #61144275, Lot #10236645). For kinetic characterization of the antigen-antibody interaction pulses of increasing GDF-15 concentrations (e.g. 156.3 pM, 312 pM, 625 pM, 1,250 pM) were injected at a flow rate of 30 μl/min. After each measurement cycle (8 min of association followed by 30 min of dissociation) the antibody-antigen complex was resolved by regeneration of the surface with 10 mM glycine-HCl at pH 2.0. […] For global fit analysis only, these antigen concentrations were taken into account, which allowed the analysis following the Langmuir 1:1 binding model or 1:1 binding with drifting baseline.

cynomolgus GDF-15 [3] = molecular target: T2, cynomolgus GDF-15; experiment: KD from PK-PD model fitted to in vivo NHP data (not a direct binding assay); in vivo KD fitted by the NHP PK-PD model, not an in vitro binding assay
mouse GDF-15 = molecular target: T3, mouse GDF-15; experiment: SPR, Biacore T3000; CTL-002 on immobilized anti-human IgG Fc antibody, GDF-15 injected
Procedure: (§2) In addition, the affinity to cynomolgus rat and mouse GDF-15 was measured (see Table 2).
as §1

cynomolgus GDF-15 [4] = molecular target: T2, cynomolgus GDF-15; experiment: as above
Procedure: as §2, §1

recombinant human GDF-15 [5] = molecular target: T1, recombinant human GDF-15; experiment: as above
Procedure: as §2, §1

rat GDF-15 = molecular target: T4, rat GDF-15; experiment: as above
Procedure: as §2, §1

[6] = molecular target: human complement protein C1q (human, UniProt P02745 23-245; P02746 28-253; P02747 29-245); experiment: ELISA, antibody incubated on coated human GDF-15, then 10 µg/ml human C1q, detection with HRP-conjugated anti-C1q antibody
Procedure: Interaction of C1q protein and therapeutic antibody was determined in an ELISA-based approach with 10 μg/ml human C1q protein using a HRP-conjugated anti-C1q antibody for detection. Here, CTL-001 and the different isotype variants were incubated to prior coated human GDF-15 protein before C1q binding was obtained. Experiment was performed in triplicated and mean of absorption (A450 nm) was plotted against the antibody concentration.

Chain of human complement protein C1q (P02745 23-245 limits assumed, chain 1 of 3): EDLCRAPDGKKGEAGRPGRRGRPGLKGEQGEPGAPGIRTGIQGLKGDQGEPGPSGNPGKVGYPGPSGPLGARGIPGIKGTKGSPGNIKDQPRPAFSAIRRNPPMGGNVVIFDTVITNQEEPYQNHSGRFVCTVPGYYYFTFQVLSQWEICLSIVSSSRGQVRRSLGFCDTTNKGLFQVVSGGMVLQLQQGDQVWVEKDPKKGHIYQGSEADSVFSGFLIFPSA
Chain of human complement protein C1q (P02746 28-253 limits assumed, chain 2 of 3): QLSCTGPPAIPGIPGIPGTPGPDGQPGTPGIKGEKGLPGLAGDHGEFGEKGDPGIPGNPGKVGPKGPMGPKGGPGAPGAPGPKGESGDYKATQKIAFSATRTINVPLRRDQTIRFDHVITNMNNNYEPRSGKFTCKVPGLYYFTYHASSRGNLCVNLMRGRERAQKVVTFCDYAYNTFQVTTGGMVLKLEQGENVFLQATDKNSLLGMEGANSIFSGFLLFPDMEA
Chain of human complement protein C1q (P02747 29-245 limits assumed, chain 3 of 3): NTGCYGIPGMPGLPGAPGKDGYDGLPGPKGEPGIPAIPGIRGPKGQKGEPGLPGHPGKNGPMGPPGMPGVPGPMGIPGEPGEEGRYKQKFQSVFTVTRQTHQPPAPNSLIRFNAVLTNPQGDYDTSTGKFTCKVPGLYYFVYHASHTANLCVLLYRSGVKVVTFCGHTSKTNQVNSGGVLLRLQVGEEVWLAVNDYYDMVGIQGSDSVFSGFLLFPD

| Binder | EC50, rescue of CD8+ T-cell adhesion (flow-adhesion assay) (recombinant human GDF-15 [1]) [µg/mL] | EC50, reversal of GDF-15 mediated inhibition of T cell adhesion (in vitro flow-adhesion assay, 50 ng/ml GDF-15) (recombinant human GDF-15 [1]) [µg/mL] | EC50 of CTL-002 in the flow-adhesion assay with T cells (recombinant human GDF-15 [1]) [µg/mL] | Kd (recombinant human GDF-15 [2]) [nM] | Kd (cynomolgus GDF-15 [3]) [nM] | Kd (mouse GDF-15) [nM] | Kd (cynomolgus GDF-15 [4]) [nM] | Kd (recombinant human GDF-15 [5]) [nM] | Kd (rat GDF-15) [nM] | binding result [6] |
| --- | --- | --- | --- | --- | --- | --- | --- | --- | --- | --- |
| B1 | ~0.7 | 0.69 to 0.725 | 0.707 | 0.0338 | 0.019 | 9.76 | 0.108 | 0.0383 | 0.449 | no binding (tested: about 25 µg/ml (leftmost visible marker)) |
| B2 | – | – | – | – | – | – | – | – | – | no binding (tested: about 25 µg/ml (leftmost visible marker)) |
